Measured values: publication PMC3593554

Biological target: formyl peptide receptor (FPR1) on U87 astrocytoma cells (human (endogenous in U87)) (UniProt P21462)
Experiment: flow cytometry on cells

Chain of UniProt P21462 (P21462 whole entry): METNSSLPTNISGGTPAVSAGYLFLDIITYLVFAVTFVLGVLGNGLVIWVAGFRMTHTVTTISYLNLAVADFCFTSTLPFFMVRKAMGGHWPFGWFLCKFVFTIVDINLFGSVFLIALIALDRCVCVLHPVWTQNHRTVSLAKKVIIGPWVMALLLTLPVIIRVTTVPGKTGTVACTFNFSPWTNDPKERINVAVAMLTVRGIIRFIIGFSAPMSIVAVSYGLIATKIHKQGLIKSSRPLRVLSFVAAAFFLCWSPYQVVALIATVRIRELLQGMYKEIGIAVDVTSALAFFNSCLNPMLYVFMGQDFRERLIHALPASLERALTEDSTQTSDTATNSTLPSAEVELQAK

Substance “Chemotaxis Inhibitory Protein of S. aureus (CHIPS) (from UniProt A6QIG7 29-149) (natural protein)” has a percent inhibition of fMLF-FITC binding at 100 ug/ml CHIPS of 81%.
